The text below walks through data of the RNAGym collection of RNA variant scans (doi:10.7554/elife.90254).

To fix the notation:
B1: OR4K15 (parent)
chain: GUUAACGGUCAUAGGCCAUGGAAACUAGGAGCACCAUUUCGCUGCCAGUGAAGAAAUGAACAAAGAAAAUCUGGGCCAGGCAGGCAUCAAAAGAAAUAGUCUUGCGCUCAACCAGAAAGUCUGUAAUCAUUUUAAGGGUA

In the series the parent is B1. As to the kind of experiment: self-cleavage, relative activity (ratio to wild type); higher = more cleavage; in vitro, sequencing; the parent is a self-cleaving ribozyme.
For the variant A126C U132G, the self-cleavage is 0.89. A117G A126G: the self-cleavage amounted to 1.27.

Turning to G123U U130C, the self-cleavage came out at 0.44. With A116C U131C, the self-cleavage came to 0. As for U120A U132C, the self-cleavage was 1.37.

With U124C A140G, the self-cleavage is 0.57. As for A111G U127A, the figure is 0.01; as for A111G U127C, 0.01.

Regarding A111G U127G, the self-cleavage came to 0.02. As for C113A A140G, the figure is 0; as for C113G U131C, 0. With U122C A134U, the self-cleavage came to 1.75.

Take A126G U127C: the self-cleavage was 0.83. Turning to A126G U127A, the self-cleavage turned out to be 1.77.

Take A111G U139C: the self-cleavage came to 0.01.

Take A111G U139G: the self-cleavage is 0.02.

Regarding A129U U132C, the self-cleavage came to 1.12. As for A117G U122C, the self-cleavage was found to be 1.05. For the variant U124A U127C, the self-cleavage is 0.65. A117G U130A: the self-cleavage is 0.26. On to A117G U130C, for which the self-cleavage stood at 0.39. U120A: the self-cleavage came out at 1.61.

Take U120G: the self-cleavage came out at 1.31. The same measure for U120C: 0.8; for A114U A140U: 0.1; for U120C U130A: 0.71. As for A116G A140C, the figure is 0.63; as for U127A U131C, 2.45.

U120A U124C: the self-cleavage stood at 1.04. As for A118C U130C, the figure is 0.93; as for A114U A125G, 0; as for A114G G123A, 0.12.

Consider A126U U127C, for which the self-cleavage was found to be 0.5. The same measure for G119C U132C: 1.13; for C121A G137A: 1.87. In the case of A114U A118U, the self-cleavage was determined as 0.02. For the variant A129U A134U, the self-cleavage is 1.18.

Take A114C U127C: the self-cleavage worked out at 0. For the variant A117G A134G, the self-cleavage worked out at 0.61.

Regarding U120A A135G, the self-cleavage amounted to 1.1. For the variant U127A A140U, the self-cleavage was determined as 1.25. On to U120A U127C, for which the self-cleavage is 1.67.

Take C113A A114G: the self-cleavage is 0.01. As for C112G U124C, the figure is 0; as for U127C A134U, 1.36.

Consider A114U A117G, for which the self-cleavage was 0.04.

Take U131C A134G: the self-cleavage was 0.73.

Turning to A116C U127C, the self-cleavage was determined as 0.03.

A114U U124G: the self-cleavage worked out at 0.06.

As to U127G, the self-cleavage is 1.32.

With U127C, the self-cleavage worked out at 0.68. The same measure for U127A: 1.6.

As for U122C A140G, the self-cleavage stood at 1.32.

For the variant U122C A140U, the self-cleavage came out at 1.13.

Regarding C113U U120C, the self-cleavage amounted to 0.04. Turning to A116U A134U, the self-cleavage amounted to 0.33. As to U120A U133A, the self-cleavage is 1.81. With U124A U139C, the self-cleavage is 1.26. Regarding C112U U122A, the self-cleavage is 0.01. With A126U U132C, the self-cleavage stood at 1.21.

With A125G A126G, the self-cleavage stood at 0.68.

On to U124A U132C, for which the self-cleavage was found to be 0.13. In the case of C112U A118G, the self-cleavage is 0. For the variant U120C U122G, the self-cleavage is 2.61. For the variant U120C U122A, the self-cleavage was determined as 0.26. As for U127C U131C, the self-cleavage turned out to be 0.51. On to A118U A125G, for which the self-cleavage amounted to 0.86. On to A117G U127A, for which the self-cleavage is 2.7. In the case of A129U A135U, the self-cleavage came out at 0.42. In the case of A111U A114U, the self-cleavage turned out to be 0.02. In the case of A126G A129G, the self-cleavage is 0.97. As for A114G U127A, the figure is 0.47; as for U122A U133A, 1.43. Consider U122A U133C, for which the self-cleavage worked out at 2.07. As for A116C A117G, the figure is 0.04; as for A129G A140U, 2.17; as for U122C A125G, 0.38.

Take U122C A125C: the self-cleavage is 0.72. Regarding A129C U133A, the self-cleavage is 1.68. Consider A118G U133C, for which the self-cleavage worked out at 1.23. As for A114U U130C, the figure is 0.01.

On to A118U U131G, for which the self-cleavage was 0.62. As for U130C G136U, the figure is 1.19; as for A114C A117G, 0.05. As to A126U A135G, the self-cleavage turned out to be 1.24. As for G123A A135G, the self-cleavage came to 2.16. The same measure for A114G U124C: 0.07; for A114G U124G: 0.21.

In the case of C112U A140U, the self-cleavage was found to be 0.01. As for A117C G136A, the self-cleavage turned out to be 0.78. Turning to G123A A126G, the self-cleavage came to 1.34. U122C U132C: the self-cleavage is 0.49. As to U122C U132A, the self-cleavage was determined as 0.43. With U130C A140G, the self-cleavage amounted to 1.

As for G115A A118G, the self-cleavage was found to be 0.04.

In the case of U124G A125G, the self-cleavage is 0.6.

For the variant U124G A125U, the self-cleavage amounted to 1.25. As for C121U U127C, the figure is 1.46; as for A111U A126C, 0.06; as for A114C A125G, 0.01. As for A116G A126U, the figure is 1.04. U122A A125U: the self-cleavage was 2.05.

Turning to A116U U131C, the self-cleavage was 0.11. Take G115A U120C: the self-cleavage turned out to be 0.03. As for A116G U124C, the self-cleavage is 0.36. Regarding C112A A140G, the self-cleavage is 0.02. U122C A129U: the self-cleavage came to 0.49.

Consider C113U U132A, for which the self-cleavage was found to be 0.06. For the variant A111U U120C, the self-cleavage came out at 0.03. The same measure for A116G U139C: 1.17; for A111U A116G: 0.04. A114G U120A: the self-cleavage came out at 0.2.

For the variant A114C G137A, the self-cleavage was 0.07. For C112U A116G, the self-cleavage worked out at 0. As to A126C U130C, the self-cleavage was 0.47. The same measure for A116G U120C: 0.27; for A116G A117U: 0.44; for U127A U130A: 1.95. Regarding A114G A118U, the self-cleavage was found to be 0.04.

On to A114G A118C, for which the self-cleavage was 0.11. As for U120G U130A, the figure is 1.2.

Turning to G119A U122C, the self-cleavage turned out to be 1.11. Take A126G U131G: the self-cleavage came to 1.23. As for A129G G137C, the self-cleavage is 1.54.

Take A126U U131C: the self-cleavage was 1.84. On to A125C A126G, for which the self-cleavage turned out to be 0.12. As for A114G U132C, the self-cleavage is 0.24. With A114G U132A, the self-cleavage is 0.7. As for A117G A125G, the figure is 0.66. On to A116G U132C, for which the self-cleavage was 0.54.

For G115A C128U, the self-cleavage came out at 0.06. As for U127C U130A, the figure is 0.35; as for A114G G138C, 0.31; as for U122A, 1.21. Take U122G: the self-cleavage is 2.57. For the variant U122C, the self-cleavage came to 0.93.

A116U U120C: the self-cleavage worked out at 0.15. On to A114C U122G, for which the self-cleavage came to 0.01. For the variant A114C U122A, the self-cleavage stood at 0.04. A126U U139A: the self-cleavage came to 1.99. As for A116C U130C, the figure is 0.06; as for A117U U130C, 1.05; as for A116U A118G, 0.07.

Take U124C U131C: the self-cleavage worked out at 0.8.

For the variant U122C G123A, the self-cleavage came out at 1.6. Take A118U U130C: the self-cleavage was 0.4. On to C113U, for which the self-cleavage was 0.08. As for C113G, the figure is 0.01.

As to C113A, the self-cleavage came out at 0.03. On to U122C U131A, for which the self-cleavage was 1.25. As for U122C U131C, the figure is 1.13. Regarding U122C U131G, the self-cleavage worked out at 0.88. As for G119A, the self-cleavage is 2.29. For the variant G119C, the self-cleavage turned out to be 1.04.

G119U: the self-cleavage was 1.82.

As to A111U A117G, the self-cleavage worked out at 0.06. Turning to A111U A129G, the self-cleavage came out at 0.19. For U120C A126U, the self-cleavage amounted to 0.57. As for G115A A134G, the figure is 0.12; as for A114G U130C, 0.38. As to A129U U131C, the self-cleavage was determined as 0.96.

Consider U131A G137U, for which the self-cleavage was determined as 0.48.

As to A116G A118G, the self-cleavage was determined as 0.22. With A117U A129U, the self-cleavage is 0.62. For the variant A116U U122C, the self-cleavage amounted to 0.21. Turning to A126G U132C, the self-cleavage stood at 1.07.

As for A125G A129U, the self-cleavage stood at 0.01.
